Positions count from the first letter of the chain named. In names and notes the source's numbering stands.

The chains are these.
B1: StOFOR2 (Sulfurisphaera tokodaii str. 7) (protein)
chain 1: MTRIVWMIGGAQGLGVDTSANIFGNAVAKAGYYLFGNREYYSNIKGRHSYFEVVISEKPIRSLSSYVNILASFDAETVFQHFTETKEYLIYNVEYENTTVDLVKSMEPEMAEQVKEALSKERLGFTIKDVLEYLKRRGVKVIGFNYTELIKKIADTFKVPMSVVERAKNMIAVGASYGLLGLKFDYLKDAISSTFKNELFIKFNTMAAELGYNSVPNVYKLQEYKIEKQRIQVDGNTISAMGKLAGGLRFQSYYPITPASDESVYIEANQNLDMIVEGNELRKGGVVVVQAEDELAAINMAVGAALTGVRSATATSGPGFSLMSEGISWAGMNEVPVVITYYMRGAPATGLPTRSGQADLKFALNVGHGEFPRIVIASGDHVEIFWDAIWALNLAEKYQTPVIHIIEKTLANAYSVFEEELITNRPYVIERGKIVKPTSDYFNRFEVTEDGISPRVFLGQASIFYTGDEHNEEGHITENSINRMKMYEKRNKKLETADKEIPEEQRVNIVGDADIVLLTWGSPKGAILDAMEELSKDGIKTMMVQVKMFNPYPKNLMKKILSGKSKIIAVENNYNAQGAEVLAEKTGIFATNYILKWTGRPITREEVIEGIKKILERDEKRVVLYGGA
chain 2: MVERKPVFVDWCPGCGDFGILRAEEMAIRELGINPKSVVIVSGIGCSGKIPHFMNLPISGVHTLHGRSIAFATGIKLSNPSLEVIVNVGDGDGLGIGMGHFVHLGRRNIDIAVLVHNNGVYGLTKGQASPTLHRGEKTKSLPKPNIMDAVNPLAVALAAGYTFVARGYAYDVMHLKELIKKAILHKGSALVDILQPCPTYNDINTKEWYDKRVYKLDNVPGWDPVVRKEEEAQKKFEQAIMKSYEWGEKIPIGIFYQNELVPTFEDRLTSNIPNYREYYPAKQQIEINGISTTKIDELIKAKRI
notes: recombinant in E. coli C43(DE3), genes from S. tokodaii genomic DNA in pOFORAB (pET-17b based), untagged; (ab)2 heterotetramer with TPP, Mg2+, [4Fe-4S]
B2: StOFOR1 (Sulfurisphaera tokodaii str. 7) (protein)
chain 1: MRLSWVIGGAQGTGIDTAANIFGNAVASAGYYIYGNREYYSNIKGRHSYFSLTISDKRVRSNTQKIDILVSFDAETVFQHFYDVKDILIYNKAVETTKIDAVQSMEPELAERIKDFLTKQGYETTVKGALEYASKNNVTLIPVNYDEIAKKVADEMKVPLSVTERVKNIVGITISYKLLGLDVNYLIEAINSTFKQDLYRKMNELAVKDSYDIVESRYNLKPSSKERRRFWLDGNTAVAIGKIYGGVRFQSYYPITPASDESVYIEAHQDVLMEDPITGDKKKGTIVVVQAEDELAAINMAIGAALTGVRAATATSGPGFSLMVEGLGWAGMNEVPVVITYYIRGGPSTGLPTRTAQSDLIFPIFAGHGEFPKIVLASGDHAEAFKDAIWALNLAEKYQTPVIHLVEKTLANSYSTIPYEELELDKLKAERGKIVESGDISYKRFKFTEDGISPRAFLGKATMYYTGDEHNEEGHISEDVVNRTMMYEKRMKKLEVADKEIPEESRVKIYGDLNSRNLIITWGSPTGVLRDILEESNFDFTLLQIRMFSPFPKNLVSKLMEGRDKIITVEGNYLAQTSLLVKMYTGKDVTNSILKWNGRPFLRDELEEALIKVIKDGEKRVVLNGGI
chain 2: MAAFKPQWNDWCPGCGNFGILNAEQQAIVELGVDTKNVVVVSGIGCSGKIPHFFRTPISGVHTLHGRAIAFATGIKLSNPDLVVIVNGGDGDLLGIGAGHFVAAGRRNVDMVVILHDNGVYGLTKGQASPTLKRGEKPKSLPRPNINDAVNPIALAISSGYTFVARGYAYDVKHLKELIKSAIKHKGLALIDVLQPCPTYNDINTKEWYDKRIYKLDTLPDWDPVVKKPEEVNEKIKRAIDKSLEWGDRIPIGIFYQNELVPSYEERIKANSPAYLDYTPAKQLIEKEGKLTTIIDPLLKEREVD
notes: recombinant in E. coli C43(DE3), pET-17b-based pOFORAB, untagged; 70 kDa alpha and 34 kDa beta subunits; (ab)2 heterotetramer with TPP, Mg2+, [4Fe-4S]
B3: StOFOR1 (Sulfurisphaera tokodaii str. 7; Q96Y66:T349L) (protein)
chain 1: B2 chain 1 with T349L
chain 2: B2 chain 2
notes: as for B2
B4: StOFOR1 (Sulfurisphaera tokodaii str. 7; Q96Y68:K49I) (protein)
chain 1: B2 chain 1
chain 2: B2 chain 2 with K49I
notes: as for B2
B5: StOFOR1 (Sulfurisphaera tokodaii str. 7; Q96Y66:S41A) (protein)
chain 1: B2 chain 1 with S41A
chain 2: B2 chain 2
notes: as for B2

Substrate in the first series: CC(=O)C(=O)O
The series is described as follows: purified protein. Particulars: 0.25 mM CoA, 2 mM methylviologen, 50 mM Tris-HCl pH 8.5, 80 °C. Type of series: biochemical, Sulfurisphaera tokodaii.
As for B1, the Km came out at 1600 ± 300 µM and the Vmax was 7 µmol/min/mg.
Taken in the same sequence, the figures for B2 were 320 ± 80 µM and 7.5 µmol/min/mg.
Take B3: the Km came to 510 ± 110 µM and the Vmax stood at 3.2 µmol/min/mg.
As for B4, the Km came out at 910 ± 120 µM and the Vmax amounted to 2.1 µmol/min/mg.
For B5 the same measures were 490 ± 90 µM and 2.2 µmol/min/mg.

Substrate in the next series: O=C(O)CCC(=O)C(=O)O
Kind of series: purified protein. The class given is biochemical, Sulfurisphaera tokodaii. As to conditions: 0.25 mM CoA, 2 mM methylviologen, 50 mM Tris-HCl pH 8.5, 80 °C.
Take B1: the Km came out at 15000 ± 2000 µM and the Vmax stood at 1.4 µmol/min/mg.
For B2 the same measures were 2100 ± 300 µM and 2.7 µmol/min/mg.
In the case of B3, the Km came out at 2300 ± 300 µM and the Vmax amounted to 2 µmol/min/mg.
Taken in the same sequence, the figures for B5 were 3200 ± 400 µM and 1.1 µmol/min/mg.

What is called Km is the concentration of substrate that gives half-maximal velocity. What is called Vmax is the rate approached at saturating substrate.

For the origin of these results see PMC5020499, “Crystal structures of archaeal 2-oxoacid:ferredoxin oxidoreductases from Sulfolobus tokodaii” (Scientific Reports, 2016).
